The source of these data is US20140161798A1 (Merck Sharp & Dohme, published 2014).

Assay [1] has as its target Purified PCSK9 carrying a C-terminal FLAG tag (UniProt Q8NBP7). The assay can be described thus: AlphaScreen PCSK9-FLAG/His-LDLR; log[antibody] ug/ml -1.9909.
Assay [2] has the same target. In words: AlphaScreen PCSK9-FLAG/His-LDLR; log[antibody] ug/ml -0.55953.
Assay [3] shares this target. In words: AlphaScreen PCSK9-FLAG/His-LDLR; log[antibody] ug/ml 0.394711.
Assay [4] has the same target. The assay can be described thus: AlphaScreen PCSK9-FLAG/His-LDLR; log[antibody] ug/ml 1.826075.
The target is the same in assay [5]. Described as above. This is another data set of the same source.
For assay [6] the target is unchanged. The assay can be described thus: AlphaScreen PCSK9-FLAG/His-LDLR; log[antibody] ug/ml 1.348954.
Assay [7] has as its target bacu-PCSK9-WT (UniProt Q8NBP7). The assay can be described thus: cell-based or functional assay.
Assay [8] addresses Purified PCSK9 carrying a C-terminal FLAG tag (UniProt Q8NBP7). The assay can be described thus: AlphaScreen PCSK9-FLAG/His-LDLR; log[antibody] ug/ml -1.03665.
The target is the same in assay [9]. In words: AlphaScreen PCSK9-FLAG/His-LDLR; log[antibody] ug/ml -0.08241.
The target is the same in assay [10]. In words: AlphaScreen PCSK9-FLAG/His-LDLR; log[antibody] ug/ml -1.51377.
Assay [11] shares this target. Described as above. The source holds these as a separate data set.
For assay [12] the target is unchanged. In words: AlphaScreen PCSK9-FLAG/His-LDLR; log[antibody] ug/ml -0.08241. The source holds these as a separate data set.
The target is the same in assay [13]. In words: AlphaScreen PCSK9-FLAG/His-LDLR; log[antibody] ug/ml 0.871832.
Assay [14] shares this target. The assay can be described thus: AlphaScreen PCSK9-FLAG/His-LDLR; log[antibody] ug/ml -0.55953. This is another data set of the same source.
Assay [15] has the same target. In words: AlphaScreen PCSK9-FLAG/His-LDLR; log[antibody] ug/ml -1.03665. The source holds these as a separate data set.
For assay [16] the target is unchanged. The assay can be described thus: AlphaScreen PCSK9-FLAG/His-LDLR; log[antibody] ug/ml 0.871832. This is another data set of the same source.
Assay [17] has the same target. In words: AlphaScreen PCSK9-FLAG/His-LDLR; log[antibody] ug/ml 0.394711. The source holds these as a separate data set.
For assay [18] the target is unchanged. The assay can be described thus: AlphaScreen PCSK9-FLAG/His-LDLR; log[antibody] ug/ml -1.9909. The source holds these as a separate data set.
The target is the same in assay [19]. The assay can be described thus: AlphaScreen PCSK9-FLAG/His-LDLR; log[antibody] ug/ml 1.348954. This is another data set of the same source.
Assay [20] shares this target. The assay can be described thus: AlphaScreen PCSK9-FLAG/His-LDLR; log[antibody] ug/ml -2.46802.
The target is the same in assay [21]. The description is as above. The source holds these as a separate data set.
The target is the same in assay [22]. The assay can be described thus: AlphaScreen PCSK9-FLAG/His-LDLR; log[antibody] ug/ml -2.94514.
For assay [23], the target named is T1, Purified PCSK9 carrying a C-terminal FLAG tag (UniProt Q8NBP7 31-692).
T1 construct: also called PCSK9-FLAG; PCSK9-Flag; not shown: C-terminal FLAG tag
T1 sequence (Q8NBP7 31-692 limits assumed): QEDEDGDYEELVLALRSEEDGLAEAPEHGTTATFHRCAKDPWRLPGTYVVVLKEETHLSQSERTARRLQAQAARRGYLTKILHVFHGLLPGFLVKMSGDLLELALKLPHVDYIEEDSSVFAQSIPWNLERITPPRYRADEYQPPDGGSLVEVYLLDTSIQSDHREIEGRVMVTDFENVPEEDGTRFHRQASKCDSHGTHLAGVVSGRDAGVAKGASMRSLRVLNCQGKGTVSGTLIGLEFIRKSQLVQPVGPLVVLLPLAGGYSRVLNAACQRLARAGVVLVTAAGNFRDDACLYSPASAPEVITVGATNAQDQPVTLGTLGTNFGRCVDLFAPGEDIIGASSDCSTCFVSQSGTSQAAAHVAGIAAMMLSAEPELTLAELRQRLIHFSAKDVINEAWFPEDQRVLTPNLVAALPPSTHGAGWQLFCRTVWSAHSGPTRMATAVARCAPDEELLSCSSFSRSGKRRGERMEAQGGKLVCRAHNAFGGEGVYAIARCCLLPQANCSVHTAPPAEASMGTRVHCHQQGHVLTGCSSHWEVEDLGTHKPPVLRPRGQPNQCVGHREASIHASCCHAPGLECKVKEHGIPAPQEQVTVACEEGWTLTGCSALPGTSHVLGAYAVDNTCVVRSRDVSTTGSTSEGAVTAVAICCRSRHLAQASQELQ
In words: AlphaScreen, inhibition of PCSK9-Flag/His-tagged LDL receptor interaction; average of two measurements. The procedure: This technique required that “donor” and “acceptor” beads be brought into proximity via protein—protein interaction, resulting in increased luminescence (Ullman et al., Proc. Nat. Acad. Sci. (1994) 91:5426-5430). […] About 2.5 μl of biotinylated anti-Flag-M2 antibody (1.8 μg/ml) was added and the mixture incubated for 1 hour. Afterward 5 μl of streptavidin donor bead and nickel chelate acceptor bead (1:1 mixture) was added and the assay incubated overnight. AlphaScreen signal (counts per second) was analyzed using an EnVision microplate reader (Perkin-Elmer). All data points were determined in triplicate. Assays were carried out at 23° C. in buffer containing 25 mM HEPES, 0.1 M NaCl, pH 7.4, 0.1% BSA. The inhibition assays were determined similarly with slight adjustments to assay volumes and protein concentrations.

Sequence of Purified PCSK9 carrying a C-terminal FLAG tag (UniProt Q8NBP7) (Q8NBP7 31-692 limits assumed): as above
Sequence of bacu-PCSK9-WT (Q8NBP7 31-692 limits assumed): as above

Take “Rabbit anti-murine-PCSK9 polyclonal antibody, Cayman Chemical Cat.#10008811 (anti-PCSK9-catalytic domain antibody)”: the AlphaScreen mean counts was 130000 counts in assay [1]; 128000 counts in assay [2]; 93500 counts in assay [3]; 6840 counts in [4]; 2100 counts in assay [5]; 25800 counts in assay [6]. Besides, the AlphaScreen mean counts is 79800 counts in assay [8]; 94800 counts in [9]; 85600 counts in [10]; 126000 counts in assay [11]; 70000 counts in assay [12]; 33300 counts in assay [13]. The AlphaScreen mean counts in assay [14] was 77400 counts; in [15] it was 124000 counts; in assay [16], 55600 counts; in [17] it was 60100 counts; in assay [18], 81500 counts; in assay [19], 12300 counts. The AlphaScreen mean counts in assay [20] is 80600 counts; in assay [21] it was 132000 counts; in assay [22] it was 85400 counts. Further, the DiI-LDL uptake by HepG2 cells, 6 hour incubation, [PCSK9] 1.67 ug/ml, antibody 100 ug/ml (fluorescence intensity) in assay [7] stood at 2.95e+07. This molecule also came in with a DiI-LDL uptake by HepG2 cells, 6 hour incubation, [PCSK9] 5 ug/ml, antibody 100 ug/ml (fluorescence intensity) in assay [7] of 2.56e+07. In addition, in [7], the DiI-LDL uptake by HepG2 cells, 6 hour incubation, [PCSK9] 15 ug/ml, antibody 100 ug/ml (fluorescence intensity) is 2.24e+07. Further, the DiI-LDL uptake by HepG2 cells, 18 hour incubation, [PCSK9] 1.67 ug/ml, antibody 100 ug/ml (fluorescence intensity) in assay [7] worked out at 3.2e+07. Further, the DiI-LDL uptake by HepG2 cells, 18 hour incubation, [PCSK9] 5 ug/ml, antibody 100 ug/ml (fluorescence intensity) in assay [7] was determined as 2.59e+07. In assay [7], this molecule came in with a DiI-LDL uptake by HepG2 cells, 18 hour incubation, [PCSK9] 15 ug/ml, antibody 100 ug/ml (fluorescence intensity) of 2.18e+07.

B1: 1F11/1G11 anti-PCSK9 antibody (IgG2a) (antibody, V domains shown)
VH: EVQLQQSGPELVKPGASVKISCKVSGYTFTDYYMNWVKQSHGKSLEWIGDINPNNGGAIYNQKFKGKATLTVDKSSSIAYMELRSLTSEDSAVYYCTSGIITEIAEDFWGQGTTLTVSS
VL: DIVMTQSQKFMSTSVGDRVSVTCKASQNVGTNVVWYQQKPGQSPKALIHSASYRYSGVPDRFKGSGSGTDFTLTITNVQSEDLAGFFCQQYKTYPYTFGGGTQLEIKR
notes: also called anti-human PCSK9 Antibody, 1F11/1G11
On to B1, for which the 50% inhibitory concentration (IC50) in assay [23] was found to be 0.049 nM.
